US7078197

Target: 35S-labeled mRNA-peptide fusion prepared from mRNA 1 crosslinked to linker B, encoding the Flag and Strep-Tag II epitope
Assay: precipitation of 35S-labeled fusion on affinity resin, wash, scintillation counting

Row | Substance | fusion binding (percent bound) [%]
1 | Anti-Flag M2 Affinity Gel (Sigma, MO) (antibody) | 54
2 | StrepTactin Sepharose (Genosys, Tex.) | 62
